{"source": "a protein production outcome set (Wang et al. 2014)", "data": [{"assay": "label from the status in PepcDB records", "values": [{"sequence": "MKMKLLILAVLPFLTPINMNSQEEKASWVQYVNPLIGTEVWQSGVAVAGHEDPSGYTFPGVTEPFGMTEWTAHTLESKHAGTLHHRVPYWYKHNYISGFMGTHYPSGAVMFDYGAVELMPVVGQLKCRPEERSSSFTHITEKSKPHFYEVMLDDYQVKAQLSATKTSAILQFTYPQSDSAYVVVDAMPSMFTAGAPGYIHIDPVRKEISGKSIQSARGYRETGYFVVRFDKDFDSFGTFNLNNDYPEVIEEKYLFTQKEGKWVNGLKGIYTQDSKGVGHLRSEKIDPVIDFDWDWYKPADDFSFNDYQVTWSGKLKAPSTGEYTLGIQADDGARLYINGELLIDDWKSHSFSYQPTQKKISLEAGKMYDIKLEYYQHEWSSRIKLSWIRPDKKSSTSLLTGNRHLESSTKIGGYIRFKTGKNEVIKAIVGTSFISVEQARINLEREIGAKSMETISAQTEALWNKELSVIDLPGATEQDKIVFYTALYHSFLLPRSLSEDGKYRSPFDGKVHKGISFTDYSIWDTFRATHPLFVLLKPDFAGDLITGLLHAYDEGGWLPKWPNPGYTNCMMGTHSDAIIADAYVKGVRNFDVEKAKKAVLKNAYEKGNHIAWGRLGIMDYERLGYVPVDKYGESVARTMEFAYDDYCLSRFFAEKGEPDLSDKLGKRSKNFRNVLDKETKMVRARKADGSWSNPEDYDISVWSGFNPKGVYNYKKNYTLFVPHDVPELIRFLGGTDSLAVFMDELFDKDIYYVGDEFVMHAPYMYNLCKRPWMTQKRIYDIVNKYYLPTPSGLPGNDDCGQLSSWYIFSAMGFYPMCPASIEYQLGVPCLPGFVLHLPQNRTFTIKTKNFGKGNCYVRAVYLNGKPHRSSVITHSDIINGGEILFELTDKPAYNWFQ", "protein production": "failed"}, {"sequence": "MKMKYDPGETWRSIYRENKRCDGFNNYYDDESASYQFSENPYVWKDGKERCRTIGMQNDWTALDIGAGAGSMTVPLAKICKRVTAVEPSKTMARILSSNLKKAGLDNVQIINSRWEDAPEEIERHDIIIAAYSLMIDDIEKAVLRMNSLARKKVYLYWFAGVPYWERHCLDLWSTIYGYEYTPSPKVDLIFAVLYKHGIYPDVVNLDSERPPYERVMTTEQAMDELKDSLHLKGNDEWDELLMRYIEDNYEKKEDGCWSRGGSSRMRISWSPQP", "protein production": "failed"}, {"sequence": "MKMVLFSFLLGCCSLLVSAQQPVDYVNPFIGTSNYGTTNPGAICPQGMMSVTPFNVMGSKSNKFDKDSQWWSTPYSADNNFFTGYAHVNLSGVGCPEMGSLLLMPTSGELNVDYHAYGSEYKNEVAHPGYYSNILTKYDIKTEATASMRTGLTRFTFPKGQGNILLNLGEGLTNETGATVRMVSDTEIEGSKLLGTFCYNPQAVFPIYFVMKLSKAPKQAGYWKKQREMKGVEAEWDAYSGKYKLYTKYDREMSGDDIGVWFKYDTEEDEVIEVKMGVSFVSIENARLNMNTEQPDFNFDKVRAAAGKMWNDDLSRVMVEGGTNDDKTIFYTAIYHLLIHPNIIQDVNGEYPMMESLKVGHTTGNRYTVFSLWDTYRNVSTLMTLLYPEKQLDIIRTMIDMYKESGWLPKWELYGRETLTMEGDPSIPYIVDAYMRGLRDYDIETAYEGMCKGATTPGEFNLLRPDNNDYMSKGYVPLREQYDNSVSHALEYYIADWNLSLLADALGKKEDAKLFRERAMGYKHYYCKEFGTLRPILPDGTFYSPFDPKQGENFEPSPGFHEGNAWNYTFYVPHDIKGLAKLMGGQKKFVDKLQMVFDKGYYDMANEPDIAYPYLFSYFKGEAWRTQKLVCELLGKYYHNAPNGLPGNDDTGTMSTWAIFSMMGFYPACPGDLDYVVTSPTFNKVTIRLDEKFYPKGELVIESARKTPEDIYIKEVTAGGKKLKGYTISQDELVNAGTLRFTLENKH", "protein production": "failed"}, {"sequence": "MKNDRKARLILSIFRYGKNHMEKETFYHKVNYGIYKILNAVFVIGFFGTELQASQSISNNIILFHPYGIVVSGEATLGDEVVIRQQVTIGNKGTGEGADDCPIIGDRVDIGAGAKIIGGITIGENSKIGANAVVTKSFPANSILVGVPARNIASKAMNGLEHHHHHH", "protein production": "not failed"}, {"sequence": "MKNFSRTGKILFSYGAIQMFWGLVMLNVNVFEHTSETIKYVILITGIVFCIISNFFKEHKSHTIT", "protein production": "failed"}, {"sequence": "MKNFWKKYHKWVGLFFSFFILMFCFSGIVLNHRTLFSKAEVSRNWMPESYHYKNWNNGIIKGTLRLPDGKILAYGNAGVWKTDSCFATFADFNRGLAEGIDNRKISNIVRVANNDIWCAGLYSIYLLNHDSWKEYPIAGNDERISDITQRGDTLVILTRSYLYTSVSPYDEFRKTELKTPENYSPKTSLFRTIWLLHSGELFGTPGKLAVDFLGVVLIVLSATGIIYTLLPPFIRRRHRKRLPVKTQAKALKTSLNWHNKLGTWLIGLTLLLSVTGMCLRPPLMIPFVLVNTRPVPGSTLDSDNPWHDKLRSIRWDASRNVWLLSSSMGFYRINDLQLPPVKLKQTPPVSPMGVNVFHPQSPDEWLIGSFSGLFVWNPSTGTVLDYYTGQPPAAVHGRPLGGSLVNGFTDDLVTREVIFEYDNGARNKENNLVLPAMPDLIKQQPMSLWNFCLELHVGRCYSPFLGVFSDLFVFISGLLLTLILISGYIVYKRHHKRSKKIRMH", "protein production": "failed"}, {"sequence": "MKNIAFFDFDGTITSTDSYTPFIFQTIPASRMKKGKFLLAPYILGYRLKLIRGTVLRSKIFKLGFAGLDADEIQQKGLSFSQSYLPQIIRPQALERIQWHLAQGDHVVVVSASMDVYLKPWCTQYGLDLLCSEVDTINGKITGIYKNGDCSREVKKQRILDNYDLSLYAAIYAYGDTIEDQAMLSLATHGFYRWQPINPR", "protein production": "failed"}, {"sequence": "MKNIIACIDGSPTTFATCEASAWVASKINAPLILLHALDKTMRPVVSEFSGQIGLGSQEELLNELAELDEARSKVALKHGKKLLEEATEWVIKKGLTNVEQLQRHGSLLESLIDLENQLRVLVIGKLGEDQSSNKTIGSQLESIIRSIKSHTLVVT", "protein production": "failed"}, {"sequence": "MKNIINILDDLTINKIAAGEVVERPSSVVKELIENSIDAGANKISIDIIDGGKSLIKITDNGIGIPSSEVEKSFLRHATSKIKKIDDLYDLYSLGFRGEALASISAVSKLEMTTKTKDEIIGTKIYVEGGKIISKEPIGFTNGTTIIIKDIFFNTPARQKFLKSTHAETINISDLINKLAIGNPNIQFKYTNNNKQMLNTPGDGKLVNTIRSIYGKEITENIIDVEFKCNHFKMNGYIGNNNIYRSNKNLQHIYINKRFVKSKIIIDAITESYKSIIPIGKHAVCFLNIEVDPSCIDVNIHPNKLEIKFEKEQEVYIELRDFLKVKLIHSNLIGKYATYSDKKTQPRIAINSREKSTDYKLRNNDLLESTPKNSNITKGKDEVIEVVTLSSEKPINEFQSVSEVLNASVEDDVKNINYLSEDSANDNIQEEFQVDGIKNEGNYYLGDSIKDSEEEYLCSSKRKFSLYGYSVIGVVFNTYIILSKDDSMYLLDQHAAHERILYERYMEKFYRQDINMQILLDPVVIEVSNVDMLQIENNLELFMKFGFELEIFGNNHIMVRCVPTIFGVPETEKFILQIIDNIEEITSNYDLKGERFASMACRSAIKANDKIYDIEIKSLLEQLEKCENPFTCPHGRPIMVEISKTEIEKMFKRIM", "protein production": "failed"}, {"sequence": "MKNIKIMRLVTGEDIIGNISESQGLITIKKAFVIIPMQATPGKPVQLVLSPWQPYTDDKEIVIDDSKVITITSPKDDIIKSYESHTSEIITPSGLITET", "protein production": "not failed"}, {"sequence": "MKNLYILIFACLAISAQGQQLLNSDFENWTNHPGSGGYSSYDEADNWASGNAAVNIAPGLTPPTTKTTDAQHGNAAVKLTTQSIFGQIAAGNLFTGKFQLNLSNPVKSVQMGIPYVSRPSAFNVYYKYAPVNGDSCAIYVLLTKYNTSTKKTDTIGRGHFSSTANVSVYTLLHIPVTYTSTAAPDSIAMVFTSSADGGNFRGQVGSSLTVDNFSLEFEELSIATSLAAVSAVLYPNPAQSRVALSNAPSESGTVYFYNVAGKLVSSQKWTGTVSPEFALDNMPAGFYTCKFITSDTAVFSGKLLITE", "protein production": "failed"}, {"sequence": "MKNPDYEPSKPHHTPDGFRNRYPHAPRDSNGSAWKWMRERRRLGLPKPPTADLSCVPPDLAAIRRPSAVPQVTWIGHETLLLQIDGLNVLTDPVFGERASPLPFAGPRRHQPPGLSLAQLPHIDLVLLSHNHYDHLCRASVRALMRQPGGAPMFFVPLGIDRWFKRHVRGTRLSGEHVNVRAFDWDTEARFGPFSVHFCAVQHWSARGLYDRNRTLWGSWALLHPQLRFWFSGDLGYSQDTRDIGARFGHFDVAAIAVGAYEPRWFMKTQHIDPAEAVQVMQDIGARHAVGIHWGTFPLTDEPLDQPIADLANALRARDIDAERFVLFRHGETRVWDAQAARLLTPAEQQKARPRVDSLAAQ", "protein production": "failed"}, {"sequence": "MKNTKFSIKKIKNISNDPKVVHTKGALLEKMGKMESAIELYKSAALDNYVKSQYTLGNIYESKKQFKEAEKWYSMAYKSGSEDAAFDLGNMYYKLDGYEYAIYWYEKIANLGYLQAQNNLGVCHFKMKDFVRCEKWLKTAADKNLGKACFNLGVLYTFLEKDDEAYEYYKKGSVLLDDDAKYNLAILNGKKKDNKSTVSLYKQLYKSGHMKGCFNLGMIMEINDNLEDAEKYYKKSADRDDVKSEYRLAYVYDRKEELGDAIYYYEKAIEKNHTLSKYRLANLYNRENEIEKAKTYYKMAAEDDITEAKNNLAGIYFEEKDYENAIKYYEDAIAVGCKSSLENLGDLYYQNQDIEKAISYYSRIPNNVSCQIKLGNIYEDLNNIEEAISWYKKASENGDTRSSYRLGCIYESLGNTKNARKYFEMASSKNHMNARIHLGRIYFREGKLEESKMMFDTPANENNVYAQHMVGLIYDMFYKDYVNSKFWYEKARAQGCVESIYNLGQIYLKLNDDAEAEKYYKEGIKYGSKKCEYMLAGLYYKKSLDMYISLANEEYDNCEEIVEGFPNLNIDFDEVLIPPFKLQEEVIDEEEYVPIYILNIKESLDSMLEGLETEMIIDEEHDS", "protein production": "failed"}, {"sequence": "MKNVLILGAGGQIARHVINQLADKQTIKQTLFARQPAKIHKPYPTNSQIIMGDVLNHAALKQAMQGQDIVYANLTGEDLDIQANSVIAAMKACDVKRLIFVLSLGIYDEVPGKFVEWNNAVIGEPLKPFRRAADAIEASGLEYTILRPAWLTDEDIIDYELTSRNEPFKGTIVSRKSVAALITDIIDKPEKHIGENIGINQPGTDGDKPFFM", "protein production": "not failed"}, {"sequence": "MKNVLYICIGALLAVLAFSSCNDGIDIRQDYDFSLSSWYLQKQIATGETVEIRFYLDREGDYEKAEYEIGYIQMEGKGEVSDCEGVKLVNREVKPLAEVPGLDTENPVKQVFTLFYRSTSARRSELKFFVRDNFGQEREMTVTFDTESGTTEE", "protein production": "failed"}, {"sequence": "MKNYLQILRETLKAMLSKPMWLMVVASVCITSLPYMNHTALDLPVAVVDEDHSDVSRELVRLLDSAPKVAVVGYDSLPQAKRDLAWRKLYAIIVIPLNFEKRLLRGEALVIPYFGDATNRMANGQIQQDISAVYSALTNRYNAALLEREGFTATQAQVVLSPLVGQLTDLFNPGISFAAIVLPGLLSLILQHSLLLGCTRGNIMLRGGTPRYMRQPLSTRFGRYSAQLLIWTVLAMLFYVIWPHLLGYRQSASFFMLLGIVLPFLIAVIALSEFIAELLPTEESVYLTMTFITLPLFYMAGYSWPEQAMPDWVRWLADAIPSTWAIRAIAEMNQMDLPLREVSDHALVLLGMAATYALLGTLLYQYRNWRWDNVKGW", "protein production": "failed"}, {"sequence": "MKPEISIIVPIYNVEKYLSKCIDSILNQSFTNFELILVNDGSNDRSGIICDEYTLKDERIRVIHKKNGGVSSARNSGISLALGKYIGFVDPDDYIKEEMYEILYNLCKKYKTDISICKLGREINGTLINNEENGEIIELDNVNGLKELFKGILYRFSLCNKLFKRECFRGVIFPEGRIHEDLSTTYRLFANAKKSIYFDYVGYIYVKRENSILTTTYNEKRLQAFIGWNEILEFMINKYPMLEDNVVACFGYSCIDHSNYILNQVIGFNNKIRLLNFIRYEVKQRFSLLVKNKILINKLKLILILLMLNSRFLIISKYKGKGVYRKRIRI", "protein production": "failed"}, {"sequence": "MKPKLILMSHGRMAEETLASTQMIVGELADAAIVSMTAEDGLSGTQAKLAAILKEAGNVPTLVLADLKGGTPCNVAMMAMGTYPQLRVVAGLNLAMAIEAAVSPVENVDELAAYLTQIGQSAVTTIDLPELTDEEEFEE", "protein production": "not failed"}]}]}
